From the supplement of paper PMC9170038

System: MS2 coat protein
Assay: apparent KD of MS2 coat protein; higher = weaker reporter binding
Details: Eterna round: R107
Experimental: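 RNA-MaP round R107: designed RNA switches with theophylline, tryptophan, arginine or FMN aptamers are transcribed on-chip within common flanks. They are titrated with SNAP-549-labelled MS2 coat protein in RNA-MaP buffer (100 mM Tris pH 7.5, 80 mM KCl, 4 mM MgCl2), without ligand or with the indicated ligand. Median apparent KD per design.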

[1] = input ligand: theophylline 20 uM
[2] = input ligand: tryptophan 2.4 mM
[3] = input ligand: theophylline 2 mM

Sequence | apparent KD of MS2 coat protein (input ligand: arginine 13.2 mM) | apparent KD of MS2 coat protein [1] | apparent KD of MS2 coat protein [2] | apparent KD of MS2 coat protein [3] | apparent KD of MS2 coat protein (input ligand: none)
ACGACAUGAGGAUCACCCAUGUAAGGUGAUACCAGACGAAGUAAUGUCCCUUGGCAGCACACGCAUAGUUGCGAUUAUUGUACGA [JR_SSTheophyA_Sub007] | 83.7 nM | 522 nM | 572 nM | – | –
ACGACGGCUGCGGCCGCCACUGUACAUGAGGAUCACCCAUGUGUAGUAAUUGGGACCCUGUGUUACAGGACCGGGUAGUUGAUUA [Orquteer] | 23.3 nM | 49 nM | – | 47.1 nM | –
ACGUAAUGCAGAAGGAGCGUCAUUUUAAAACAUGAGGAUCACCCAUGUAAUAUUUUUGUGUGACAGGUAGGUCGCUGAAGUACGA [JR_SSArginiB_Sub007] | 13.9 nM | 17.7 nM | 11.8 nM | 14.4 nM | 13.4 nM
ACGUAUGUCAGAAGGAGCGUCAAUAACAUGAGGAUCACCCAUGUAUUACAUAGGUAUAAUAGACAGGUAGGUCGCUGAAUUCGAA [JR_SSArginiB_Sub022] | 22.4 nM | 46.4 nM | 27 nM | 31.2 nM | 29.2 nM
ACGUCAUGGAGAACGUGACGACUUGUCGAUACCAGUGUUUGAUAGCGCCCUUGGCAGCGAACAUGAGGAUCACCCAUGUCAAGGG [#11 SameState-TheophyllineA] | 51.7 nM | 84.6 nM | 66.4 nM | 88.9 nM | 72.8 nM
ACGUCCAGGUUAAUCGUGGACAUGGUCGAUACCAGUAUUUUAAUCUACCCUUGGCAGCGACAUGAGGAUCACCCAUGUGCGAUGA [XTheo A #15] | 11.7 nM | 14.7 nM | 13 nM | – | –
ACGUCUCGAAAACUCGUAGUAACAAUAGAUACCAGUAGCGAGAGUUACCCUUGGCAGCUACAUGAGGAUCACCCAUGUACGAGGA [XTheo A #27] | 19.1 nM | 26 nM | 18.1 nM | – | –
ACUAGGCUCGGAAACGAGCCUAGGACAGAAGGAGCGUGGAUUAACACAGGUAGGUCGCUGACAUGAGGAUCACCCAUGUAUUUAU [SSAA #5] | 19.9 nM | 31.2 nM | 21.9 nM | 25.6 nM | 27.3 nM
ACUUGGUGGUGAUCCCUGCCAAGAGGUGAUACCAGCAUCGAAAGAUGCCCUUGGCAGCACCAACAUGAGGAUCACCCAUGUAAUA [(MT)''-(M)'-(T')-(Theo)-(Ms2)_Design1/22_6] | 62.6 nM | 185 nM | 214 nM | – | –
AGAAUGUAAUAUGGCAAAGUUAUAACCGAAGGAGCGCCGAAUAAGGCAGGUAGGUCGCGGAAACAUGAGGAUCACCCAUGUCCAU [Arginine A Same State; Euphoria Solution 3] | 18.1 nM | 19 nM | 18 nM | 14.4 nM | 17.3 nM
AGACAUGAGGAUCACCCAUGUAGUACGGAUACCAGAUCCAGAUGCGUCCCUUGGCAGCUGUAGUACAGCGUUACAUCGCUCAUAG [Exclusion - Theophylline A (Freestyle 25)] | 21 nM | 44 nM | 36.4 nM | – | –
AGACAUGAGGAUCACCCAUGUAGUAUGGAUACCAGAUGUAGAUUAGUCCCUUGGCAGCUGUGGUGAAGUGAUGCAUUGCUCCUAG [Exclusion - Theophylline A (Freestyle 1)] | 19.5 nM | 36.4 nM | 23.2 nM | – | –
AGAUGAGUCACGGCCGCCACUCUUAUCAGGAUCACCCAUGGUUGACAUGAGGAUCACCCAUGUAUGAGGACCGGGUGAUGAGCAU [XTryp B #1] | 13.7 nM | 15.9 nM | – | 15 nM | –
AGAUGUAGCGGAAGGAGCGUCAUGAGGAUCACCCAUGGCUCCCGUUGUGGGAGUUCCUUAGGUCAGGUAGGUCGCCGUUACGUCA [Omei Arg B SS B v6] | 79.7 nM | 187 nM | 137 nM | 254 nM | 359 nM
